Our source for the amyloid nucleation score values is the supplement of paper PMC12042874.

± gives the uncertainty stated by the source.

The data set in a line: amyloid nucleation score (Sup35N fusion, yeast selection) (log enrichment); library NNK3; higher = more nucleation; inactive = no reads after selection. A digest of the protocol: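 Psi-negative yeast expressed Sup35N fused to peptides of 20 random codons. They were induced 24 hours with 100 μM copper sulfate, grown 7 days at 30°C without adenine and uracil, and their plasmid inserts from input and output were Illumina-sequenced. The nucleation score is the DiMSum log enrichment of output over input reads, centred on the mode score of non-aggregating sequences. Sequences with under 100 input reads were excluded.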
Turning to IFSRGEGLLRRMVSL, the amyloid nucleation score entry was “inactive”.
Then HAYSWVLFAVMSLSRLPTWN, with “inactive”; and HIKVVRPRSRCDLLGSPISQ, with “inactive”; and CRTSHSWVMYWLRREMCY, with “inactive”.
Then AVPDVKSAKVDLVNFILAVC, with “inactive”; and KRGNSANPS, with “inactive”; and TDFFG, with “inactive”.
For NCSSVPVSALFGEGVRKTPS the value was “inactive”.
With VVEIMDLS, the amyloid nucleation score result was “inactive”.
Then GRTWFKYPHSDSGCSFWLTA, with “inactive”.
Substance WVTIESNLCIVSFNRSRSQK registered an amyloid nucleation score of 2.66 ± 0.075.
For VLGVEECGYWLD the value was “inactive”.
For SFWTMGNS the value was “inactive”; for HQVNVLWQVYILAFSLTSRH, “inactive”.
Regarding HSRTGLGLHKLRMAVGFCIN, the amyloid nucleation score result was “inactive”.
Turning to FGVSSP, the amyloid nucleation score result was “inactive”.
On to HFSSYAFLRTWTLYRHLTFM, for which the amyloid nucleation score entry was “inactive”.
For CKTGPEDTC the value was “inactive”; for LEALSLDVNDVVRQYSNSEG, “inactive”; for HVFLLHVMAFYFDLSCFG, “inactive”.
CRLVINNYMSR came in with an amyloid nucleation score of 2.83 ± 0.065.
For LSITDVGI the value was “inactive”.
Then GNWCSG, with “inactive”.
For GGAVMMALWGGLS the value was “inactive”; for FELYLQLN, 0.478 ± 0.38; for LYNRKHFTSM, -0.638 ± 0.96.
Turning to YNLRYLVYYLDLLSPVNQMG, the amyloid nucleation score entry was “inactive”.
Then SAAGKQLKSRFIGRR, with “inactive”; and VTLMLSITSP, with “inactive”; and FDRAFYNHWFSCGFPEGWHT, with 0.501 ± 0.17.
As to IPLYHSWSVASLRLRNVVSW, the amyloid nucleation score result was “inactive”.
With NVIMVFVLCCFWCEGTQKHV, the amyloid nucleation score stood at 1.83 ± 0.056.
On to CIVKTLQ, for which the amyloid nucleation score entry is “inactive”.
Turning to SNLFFSDWTLCCRCIVLVFK, the amyloid nucleation score amounted to 1.6 ± 0.097.
Then KYRQIMNGFKFSRANSFVTV, with “inactive”; and HTGLVILSVISPVTCPYWRK, with 0.329 ± 0.3; and SINSLFAESGLMLTFRMSSE, with “inactive”.
Consider LYSECNDPNKA, for which the amyloid nucleation score entry was “inactive”.
For SYFFVIQGQLGCITGVDFIW the value was “inactive”; for SVIILYRCSFRGWRSHASGN, 1.05 ± 0.1.
On to KYFPVAQYGRIWVRRPRGQV, for which the amyloid nucleation score entry was “inactive”.
Then HQWYG, with “inactive”; and KSNYEGTFGRHVLGPLKNKW, with -0.463 ± 1.8; and LCLRSVRLCGKAYSINDRRH, with “inactive”.
Then SLIDRIIVKPKVWTGGKNYP, with “inactive”.
In turn, NCDILVLCLSCIADGRQSYE registered an amyloid nucleation score of 2.96 ± 0.078.
As for PVNNIYGRLPGLLKLEKVSS, the amyloid nucleation score result is “inactive”.
Take PVMSS: the amyloid nucleation score result was “inactive”.
For VERSSLVEWSCDRVSKWYFV the value was 0.298 ± 0.74; for PGRMRVVTVMKMWLTALSLK, “inactive”.
NRFWLLCDFLFVHTCV gave an amyloid nucleation score of 0.897 ± 0.2.
For WAIWAYRTLVESMWGTKIGK the value was “inactive”.
For the substance TIASVKLEFALPPSHLPLGV, the amyloid nucleation score result was “inactive”.
Regarding ETRFWNLIHADYIRMIGAGF, the amyloid nucleation score entry is “inactive”.
For FYVNINFSELVSVDTISSFI the value was 0.208 ± 0.31.
For REDWRLFNCTTFSAPSSC the value was -0.217 ± 0.66.
With IHHKLVDL, the amyloid nucleation score entry is “inactive”.
In the case of SELHK, the amyloid nucleation score entry is “inactive”.
Then LVWYKSDLISIVRHTVDSCC, with “inactive”; and RPCNVMEKRDSTNIVTRFT, with “inactive”.
Then LSRSWCWRR, with “inactive”; and LDILTDAFQLLCNKKHNNKP, with “inactive”.
Then VVKAFYRARELGFRAGLRTD, with “inactive”; and GESSP, with “inactive”.
With HYILLG, the amyloid nucleation score entry was “inactive”.
Turning to VYSTSDAEVIVSVSRRGDFA, the amyloid nucleation score result was “inactive”.
Then KIGQSFSV, with “inactive”.
As to RGYSFCRPSHWWKARCVEGE, the amyloid nucleation score result is “inactive”.
For GNCHDVWVYVLCTVGMSLMR the value was “inactive”; for TWEVYTMCIRNGGVLGLFIF, “inactive”.
Then SSCKDPRRKE, with “inactive”; and SLGYHLYRHARVCYRMCDIW, with “inactive”; and LFVMVQLCQL, with 0.797 ± 0.13.
For CRMERGRFRLLKTQ the value was “inactive”; for MFGNIRTFAPTITCMGDFTL, “inactive”; for WMDRLFVSVTAVWRQPDVGI, 1.42 ± 0.11.
Regarding ILCAFTRVWCYTNGPYESGR, the amyloid nucleation score turned out to be 2.72 ± 0.053.
Then GVAPYFQCVLIEEERVEGQG, with “inactive”; and STSRGNRFACPCFDYCWFRE, with -0.598 ± 1.1; and DFCMWSYRHRDLCNSVFISS, with “inactive”.
Take EDIGGCECRYSIKDVY: the amyloid nucleation score result was “inactive”.
Then CLNHQASMVSTAPVEFFRFL, with “inactive”.
For RRMAETKHGAPMQRVLK the value was “inactive”; for RELYFSYDSLDYLGMRVWML, “inactive”; for IKLVIANCNYMMYVEMV, “inactive”.
For FRHPIYCLDLSFSYRMKARG the value was 0.052 ± 0.28; for PGHFLECRKW, -0.096 ± 0.66.
As for CLVHEVPWRQMGSDLNKAAS, the amyloid nucleation score result was “inactive”.
Then WVPAGCKSVMVGGAG, with “inactive”; and SGSLGFYTP, with “inactive”; and VSHTSNTTYRWRMFIYWSAF, with 0.104 ± 0.26.
For NHRYMMVTATRIKWDGVSWN the value was “inactive”; for SLALFFGIHPNLCFTDTSST, 0.559 ± 0.2.
Then YLSGKLFTRAP, with “inactive”.
For the substance YIGIHLTSFRSTSSYYDRVL, the amyloid nucleation score entry is “inactive”.
For MNYVIIFTWN the value was 2.76 ± 0.071; for LARDYSFATHSGLRRKSLKQ, “inactive”.
For PRLHRECNEGEVGL the value was 0.206 ± 0.81; for RLLLSGSSVAICCGQLGLGF, 2.11 ± 0.097; for MYSPVFRI, “inactive”.
Then LFISFIVLRKALFTYTCLCF, with “inactive”; and SWFGGRDYYKMHIVSG, with “inactive”; and LGTPYMDMRG, with 1.29 ± 0.15.
On to RGSPFSWVGPSDRSWSPKFP, for which the amyloid nucleation score result was “inactive”.
For APSPPMNFSPCKLDLPCWAI the value was “inactive”; for NTWPTPSLWLVLNKTLRKTS, “inactive”.
Then LVWSSSEVVFFA, with “inactive”; and SDSGLKKV, with “inactive”; and MWHLTF, with “inactive”.
In the case of RCRDGTILALC, the amyloid nucleation score result was “inactive”.
Then QYICTLTCSYFLGSMTIEHK, with -0.022 ± 0.66.
Then VSGFERVHGKGSN, with “inactive”.
Then MLSFLYRELN, with “inactive”; and LDWDFGHDRVRFPERHT, with “inactive”; and GVSDVVFWSIGYHGRRISQS, with “inactive”.
In the case of SSSTKGFVNVDKSLASW, the amyloid nucleation score result is “inactive”.
On to ISMNLVLFMWFRRIGFLICL, for which the amyloid nucleation score result was “inactive”.
For GCRGVTVHSADCCDLSIYLC the value was 2.31 ± 0.082; for PVLPQGLRVLYDSVSVTSHL, “inactive”.
Then DSTEVRYQNPMTTLRGVVFW, with “inactive”; and RSRILMYYYKISLFYRIKVM, with “inactive”.
Then CSVVSWFEAGFRFNDLMNGV, with “inactive”; and LVFHYRARKGLSIIG, with “inactive”; and FLMWVSR, with 1.08 ± 0.12.
Take LQVHILFMAIKYFSMAVV: the amyloid nucleation score result is “inactive”.
For WFFILD the value was “inactive”; for LPFCLN, “inactive”; for CIGTI, “inactive”.
Then SIPWLIVINTSHLLVIFNAI, with “inactive”; and YWVLRFRSSCGYSRMRLGPR, with “inactive”.
For LLHTTLA the value was “inactive”.
For the substance PFFDFSDINITEPE, the amyloid nucleation score was -0.306 ± 0.71.
For DMIESSKRFFGSARIVLPEM the value was “inactive”; for CSIHL, “inactive”.
